Data taken from patent publication US20060246046A1 (published 2006).

T1: factor XIIIa (human, UniProt P00488 39-732)
T1 sequence (looked up): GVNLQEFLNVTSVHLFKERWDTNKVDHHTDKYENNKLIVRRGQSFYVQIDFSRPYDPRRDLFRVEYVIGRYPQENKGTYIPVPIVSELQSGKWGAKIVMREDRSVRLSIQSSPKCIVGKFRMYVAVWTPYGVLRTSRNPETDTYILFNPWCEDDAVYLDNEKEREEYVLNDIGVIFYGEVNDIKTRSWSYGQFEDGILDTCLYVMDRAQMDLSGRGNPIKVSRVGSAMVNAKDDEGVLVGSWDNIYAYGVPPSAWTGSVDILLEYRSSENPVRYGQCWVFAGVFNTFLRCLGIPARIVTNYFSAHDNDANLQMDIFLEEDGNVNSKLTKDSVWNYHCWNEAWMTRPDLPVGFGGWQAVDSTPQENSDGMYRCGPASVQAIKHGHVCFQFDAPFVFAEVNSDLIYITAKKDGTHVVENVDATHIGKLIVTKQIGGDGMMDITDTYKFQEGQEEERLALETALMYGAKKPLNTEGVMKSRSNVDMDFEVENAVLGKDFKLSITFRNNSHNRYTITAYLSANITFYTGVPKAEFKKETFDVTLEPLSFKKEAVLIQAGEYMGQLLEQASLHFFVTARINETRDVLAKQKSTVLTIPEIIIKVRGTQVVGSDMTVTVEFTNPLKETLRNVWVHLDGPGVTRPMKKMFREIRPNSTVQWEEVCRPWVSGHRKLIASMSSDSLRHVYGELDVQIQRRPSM


Assays:
Assay in all cases: cell-based or functional assay
factor XIIIa [1] = biological target: T1, factor XIIIa
factor XIIIa [2] = biological target: T1, factor XIIIa; remark: listed apart in the source
factor XIIIa [3] = biological target: T1, factor XIIIa; remark: listed apart in the source

Binder	IC50, Berichrom assay, HPLC-purified peptide (factor XIIIa [1]) [µM]	Relative inhibitory effect (%) at 7.27 µM, recombinant tridegin = 100% (factor XIIIa [2]) [%]	Relative inhibitory effect (%) at 5.45 µM, wild type = 100% (factor XIIIa [3]) [%]	further results
DDIYQRPVEFPNLP [DDIYQRPVEFPNLP (SEQ ID No. 88) (14mer)]				IC50, Berichrom test, purified peptide (factor XIIIa [1]): ~280 µM
MDDIYQRPVEFPNLPL [MDDIYQRPVEFPNLPL (SEQ ID No. 87) (16mer)]				IC50, Berichrom test, purified peptide (factor XIIIa [1]): 19 µM
Ac-PMDDIYQRPVEFPNLPLKPR-NH2 [20 amino acid-long tridegin peptide SEQ ID NO.25]	4	42.1		
Ac-IKPMDDIYQRPVEFPNLPLK-NH2 [20 amino acid-long tridegin peptide SEQ ID NO.24]	7	43.5		
Ac-DDIYQRPVEFPNLPLKPREE-NH2 [20 amino acid-long tridegin peptide SEQ ID NO.26]	5	35.6		
modified tridegin Cys variant C32A (protein, not shown: small tags and cut ends) MKLLPCKEWHQGIPNPRCWCGADLECAQDQYAAFIPQCRPRSELIKPMDDIYQRPVEFPNLPLKPREE			86	
modified tridegin Cys variant C26A; +C38A (protein, not shown: small tags and cut ends) MKLLPCKEWHQGIPNPRCWCGADLEAAQDQYCAFIPQARPRSELIKPMDDIYQRPVEFPNLPLKPREE			80	
modified tridegin L24A (protein, not shown: small tags and cut ends) MKLLPCKEWHQGIPNPRCWCGADAECAQDQYCAFIPQCRPRSELIKPMDDIYQRPVEFPNLPLKPREE			92	
modified tridegin Y31A (protein, not shown: small tags and cut ends) MKLLPCKEWHQGIPNPRCWCGADLECAQDQACAFIPQCRPRSELIKPMDDIYQRPVEFPNLPLKPREE			69	
